The data set deals with thrombin (human plasma, Sigma-Aldrich) (Homo sapiens, UniProt P00734;P00734 328-363;364-622). The data set can be described thus: EMSA; 1 nM aptamer, thrombin 0.1x-100x; SICS: thrombin in 1 M KCl (or 150 mM KCl), pH 7.5, 30 min incubation, 300 mV; gel: 16% Tris-Glycine; temperature not stated.

B1: extended TBA 1 annealed to Cy5 gap oligo (mixed)
DNA 1: TCAGCTTGCGGAGATGCGATGGTTGGTGTGGTTGGATCGAGAAAAAGGTACGCCC
DNA 2: GGGCGTACCTTTTTCTCGATATCGCATCTCCGCAAGCTGA
As to B1, the binding result is on record as “binds”.
